Results as given in IntAct's records for PubMed 35512704.

B1: Mothers against decapentaplegic homolog 4 (Homo sapiens), Q13485 (parent)
chain: MDNMSITNTPTSNDACLSIVHSLMCHRQGGESETFAKRAIESLVKKLKEKKDELDSLITAITTNGAHPSKCVTIQRTLDGRLQVAGRKGFPHVIYARLWRWPDLHKNELKHVKYCQYAFDLKCDSVCVNPYHYERVVSPGIDLSGLTLQSNAPSSMMVKDEYVHDFEGQPSLSTEGHSIQTIQHPPSNRASTETYSTPALLAPSESNATSTANFPNIPVASTSQPASILGGSHSEGLLQIASGPQPGQQQNGFTGQPATYHHNSTTTWTGSRTAPYTPNLPHHQNGHLQHHPPMPPHPGHYWPVHNELAFQPPISNHPAPEYWCSIAYFEMDVQVGETFKVPSSCPIVTVDGYVDPSGGDRFCLGQLSNVHRTEAIERARLHIGKGVQLECKGEGDVWVRCLSDHAVFVQSYYLDREAGRAPGDAVHKIYPSAYIKVFDLRQCHRQMQQQAATAQAAAAAQAAAVAGNIPGPGSVGGIAPAISLSAAAGIGVDDLRRLCILRMSFVKGWGPDYPRQSIKETPCWIEIHLHRALQLLDEVLHTMPIADPQPLD
partner: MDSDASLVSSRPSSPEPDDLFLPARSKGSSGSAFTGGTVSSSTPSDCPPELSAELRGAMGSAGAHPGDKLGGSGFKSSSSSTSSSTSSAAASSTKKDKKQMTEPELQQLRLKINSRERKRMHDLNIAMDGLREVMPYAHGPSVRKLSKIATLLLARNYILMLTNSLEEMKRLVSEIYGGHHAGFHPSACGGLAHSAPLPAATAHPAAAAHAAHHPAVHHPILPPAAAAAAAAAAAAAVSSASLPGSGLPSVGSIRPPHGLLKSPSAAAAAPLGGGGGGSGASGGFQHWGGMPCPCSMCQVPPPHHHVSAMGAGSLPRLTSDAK
B2: Mothers against decapentaplegic homolog 4 (Homo sapiens), Q13485 (parent)
chain: B1 chain
partner: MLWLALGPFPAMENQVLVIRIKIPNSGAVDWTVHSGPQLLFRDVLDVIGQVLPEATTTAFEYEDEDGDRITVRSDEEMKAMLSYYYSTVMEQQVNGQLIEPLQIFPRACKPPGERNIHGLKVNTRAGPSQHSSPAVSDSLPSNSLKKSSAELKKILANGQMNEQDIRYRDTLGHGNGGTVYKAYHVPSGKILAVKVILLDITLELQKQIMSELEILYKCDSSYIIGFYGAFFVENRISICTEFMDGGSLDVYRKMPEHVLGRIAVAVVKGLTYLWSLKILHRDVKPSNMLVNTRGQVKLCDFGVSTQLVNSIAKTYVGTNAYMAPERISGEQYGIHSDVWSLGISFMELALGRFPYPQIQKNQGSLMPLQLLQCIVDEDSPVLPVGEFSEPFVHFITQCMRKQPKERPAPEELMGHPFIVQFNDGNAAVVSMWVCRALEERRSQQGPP
B3: Mothers against decapentaplegic homolog 4 (Homo sapiens), Q13485 (parent)
chain: B1 chain
partner: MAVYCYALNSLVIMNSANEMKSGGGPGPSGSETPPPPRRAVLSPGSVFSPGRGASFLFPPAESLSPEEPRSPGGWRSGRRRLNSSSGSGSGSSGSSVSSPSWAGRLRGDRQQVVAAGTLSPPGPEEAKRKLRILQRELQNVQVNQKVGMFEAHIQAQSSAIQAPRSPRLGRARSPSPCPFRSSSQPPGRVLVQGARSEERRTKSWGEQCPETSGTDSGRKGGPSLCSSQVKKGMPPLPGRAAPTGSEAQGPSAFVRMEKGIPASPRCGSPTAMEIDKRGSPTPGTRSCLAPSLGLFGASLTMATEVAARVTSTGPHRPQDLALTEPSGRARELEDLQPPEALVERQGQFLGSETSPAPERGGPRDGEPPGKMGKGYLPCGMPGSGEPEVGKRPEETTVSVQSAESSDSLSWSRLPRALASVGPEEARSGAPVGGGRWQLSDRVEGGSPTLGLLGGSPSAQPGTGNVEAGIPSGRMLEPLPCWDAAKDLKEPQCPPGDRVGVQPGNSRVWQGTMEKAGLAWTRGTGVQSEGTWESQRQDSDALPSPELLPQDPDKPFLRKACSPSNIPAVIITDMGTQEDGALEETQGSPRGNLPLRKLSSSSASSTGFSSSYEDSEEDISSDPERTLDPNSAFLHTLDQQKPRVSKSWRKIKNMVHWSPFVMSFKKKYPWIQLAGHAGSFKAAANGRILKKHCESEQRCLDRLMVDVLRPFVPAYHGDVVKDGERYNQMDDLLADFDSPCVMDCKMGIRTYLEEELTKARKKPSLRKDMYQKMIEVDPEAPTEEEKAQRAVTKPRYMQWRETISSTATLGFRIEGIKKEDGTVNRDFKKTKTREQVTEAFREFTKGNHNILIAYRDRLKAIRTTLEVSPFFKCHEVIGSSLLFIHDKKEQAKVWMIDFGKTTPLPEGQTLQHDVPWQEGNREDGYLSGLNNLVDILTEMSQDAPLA
B4: Mothers against decapentaplegic homolog 4 (Homo sapiens), Q13485 (parent)
chain: B1 chain
partner: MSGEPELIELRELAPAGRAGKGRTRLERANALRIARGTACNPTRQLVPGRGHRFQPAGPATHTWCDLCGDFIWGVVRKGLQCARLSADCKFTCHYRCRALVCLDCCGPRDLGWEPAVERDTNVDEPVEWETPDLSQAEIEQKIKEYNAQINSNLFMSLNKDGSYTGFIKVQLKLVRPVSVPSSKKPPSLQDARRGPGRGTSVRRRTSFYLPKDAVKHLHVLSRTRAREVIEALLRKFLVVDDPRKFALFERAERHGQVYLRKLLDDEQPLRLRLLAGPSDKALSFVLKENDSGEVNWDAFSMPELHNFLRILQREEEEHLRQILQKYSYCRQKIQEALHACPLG
B5: Mothers against decapentaplegic homolog 4 (Homo sapiens), Q13485 (parent)
chain: B1 chain
partner: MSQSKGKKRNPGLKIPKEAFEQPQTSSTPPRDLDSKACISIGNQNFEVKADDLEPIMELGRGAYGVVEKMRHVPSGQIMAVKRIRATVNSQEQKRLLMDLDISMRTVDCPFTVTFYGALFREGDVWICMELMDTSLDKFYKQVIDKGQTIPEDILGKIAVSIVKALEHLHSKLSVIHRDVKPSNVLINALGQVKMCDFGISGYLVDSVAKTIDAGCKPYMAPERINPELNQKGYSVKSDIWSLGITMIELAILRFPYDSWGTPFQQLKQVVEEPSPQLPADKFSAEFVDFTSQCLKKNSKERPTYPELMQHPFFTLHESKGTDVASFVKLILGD
B6: Mothers against decapentaplegic homolog 4 (Homo sapiens), Q13485 (parent)
chain: B1 chain
partner: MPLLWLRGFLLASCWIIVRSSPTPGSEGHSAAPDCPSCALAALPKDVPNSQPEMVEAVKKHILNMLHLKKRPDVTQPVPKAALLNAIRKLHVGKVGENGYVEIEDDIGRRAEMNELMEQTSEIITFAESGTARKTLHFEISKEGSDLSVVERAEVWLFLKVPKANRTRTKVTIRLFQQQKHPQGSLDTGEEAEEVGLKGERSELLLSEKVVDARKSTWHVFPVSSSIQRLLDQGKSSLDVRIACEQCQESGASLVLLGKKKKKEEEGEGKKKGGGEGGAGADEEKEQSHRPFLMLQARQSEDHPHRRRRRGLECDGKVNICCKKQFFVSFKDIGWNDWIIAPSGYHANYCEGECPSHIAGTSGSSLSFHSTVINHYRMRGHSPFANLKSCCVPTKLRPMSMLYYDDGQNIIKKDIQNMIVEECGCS
B7: Mothers against decapentaplegic homolog 4 (Homo sapiens), Q13485 (parent)
chain: B1 chain
partner: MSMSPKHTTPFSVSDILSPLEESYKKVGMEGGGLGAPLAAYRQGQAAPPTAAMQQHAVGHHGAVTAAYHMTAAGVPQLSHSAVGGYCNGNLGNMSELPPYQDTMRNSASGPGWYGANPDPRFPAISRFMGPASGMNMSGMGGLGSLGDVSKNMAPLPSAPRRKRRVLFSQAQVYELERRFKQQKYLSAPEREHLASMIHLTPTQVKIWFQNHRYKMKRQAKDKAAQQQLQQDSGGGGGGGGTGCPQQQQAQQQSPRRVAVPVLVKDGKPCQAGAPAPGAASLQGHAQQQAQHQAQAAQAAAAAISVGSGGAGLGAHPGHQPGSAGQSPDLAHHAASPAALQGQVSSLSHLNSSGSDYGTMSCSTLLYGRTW

Variants of: B1
Conditions: with olig2_human OLIG2, Q13516

| effect of a mutation on the interaction | Variant |
| --- | --- |
| with no effect | R361H |

Variants of: B1
Conditions: with olig2_human OLIG2, Q13516
Remark: another data set of the same source

| effect of a mutation on the interaction | Variant |
| --- | --- |
| with no effect | D351H |

Variants of: B2
Conditions: with mp2k5_human MAP2K5, Q13163

| effect of a mutation on the interaction | Variant |
| --- | --- |
| with no effect | D351H |

Variants of: B2
Conditions: with mp2k5_human MAP2K5, Q13163
Remark: another data set of the same source

| effect of a mutation on the interaction | Variant |
| --- | --- |
| with no effect | G386D |

Variants of: B2
Conditions: with mp2k5_human MAP2K5, Q13163
Remark: another data set of the same source

| effect of a mutation on the interaction | Variant |
| --- | --- |
| with no effect | R361C |

Variants of: B2
Conditions: with mp2k5_human MAP2K5, Q13163
Remark: another data set of the same source

| effect of a mutation on the interaction | Variant |
| --- | --- |
| with no effect | R361H |

Variants of: B3
Conditions: with ip3kb_human ITPKB

| effect of a mutation on the interaction | Variant |
| --- | --- |
| with no effect | D351H |

Variants of: B3
Conditions: with ip3kb_human ITPKB
Remark: another data set of the same source

| effect of a mutation on the interaction | Variant |
| --- | --- |
| with no effect | R361C |

Variants of: B3
Conditions: with ip3kb_human ITPKB
Remark: another data set of the same source

| effect of a mutation on the interaction | Variant |
| --- | --- |
| with no effect | R361H |

Variants of: B3
Conditions: with ip3kb_human ITPKB
Remark: another data set of the same source

| effect of a mutation on the interaction | Variant |
| --- | --- |
| with no effect | G386D |

Variants of: B4
Conditions: with rasf1_human RASSF1, Q9NS23

| effect of a mutation on the interaction | Variant |
| --- | --- |
| with no effect | R361C |

Variants of: B4
Conditions: with rasf1_human RASSF1, Q9NS23
Remark: another data set of the same source

| effect of a mutation on the interaction | Variant |
| --- | --- |
| with no effect | R361H |

Variants of: B4
Conditions: with rasf1_human RASSF1, Q9NS23
Remark: another data set of the same source

| effect of a mutation on the interaction | Variant |
| --- | --- |
| with no effect | G386D |

Variants of: B4
Conditions: with rasf1_human RASSF1, Q9NS23
Remark: another data set of the same source

| effect of a mutation on the interaction | Variant |
| --- | --- |
| with no effect | D351H |

Variants of: B5
Conditions: with mp2k6_human MAP2K6, P52564

| effect of a mutation on the interaction | Variant |
| --- | --- |
| with no effect | D351H |

Variants of: B5
Conditions: with mp2k6_human MAP2K6, P52564
Remark: another data set of the same source

| effect of a mutation on the interaction | Variant |
| --- | --- |
| with no effect | G386D |

Variants of: B5
Conditions: with mp2k6_human MAP2K6, P52564
Remark: another data set of the same source

| effect of a mutation on the interaction | Variant |
| --- | --- |
| with no effect | R361H |

Variants of: B5
Conditions: with mp2k6_human MAP2K6, P52564
Remark: another data set of the same source

| effect of a mutation on the interaction | Variant |
| --- | --- |
| with no effect | R361C |

Variants of: B6
Conditions: with inhba_human INHBA

| effect of a mutation on the interaction | Variant |
| --- | --- |
| with no effect | G386D |

Variants of: B6
Conditions: with inhba_human INHBA
Remark: another data set of the same source

| effect of a mutation on the interaction | Variant |
| --- | --- |
| with no effect | R361C |

Variants of: B6
Conditions: with inhba_human INHBA
Remark: another data set of the same source

| effect of a mutation on the interaction | Variant |
| --- | --- |
| with no effect | R361H |

Variants of: B6
Conditions: with inhba_human INHBA
Remark: another data set of the same source

| effect of a mutation on the interaction | Variant |
| --- | --- |
| with no effect | D351H |

Variants of: B7
Conditions: with nkx21_human NKX2-1, P43699

| effect of a mutation on the interaction | Variant |
| --- | --- |
| with no effect | R361C |
